Test results: US20120058906A1 (published 2012)

Tests used:
[1] = biological target: T1, rHuman IGF-1 sR (IGF-1 sR), CF (R&D Systems Cat#391-GR) (human, UniProt P08069 31-932); test: MSD ECL multi-spot plate, antigen immobilized; Fab 8 nM; blank spot 489
T1 construct: Purchased soluble receptor; also called insulin-like growth factor-1 soluble receptor; IGF-R1

[2] = biological target: T2, rHuman P-Cadherin/Fc Chimera, CF (R&D Systems Cat#861-PC) (human, UniProt P22223 108-654); test: as above
T2 construct: Purchased Fc chimera; not shown: Fc portion of the purchased chimera

[3] = biological target: T3, rHuman Erythropoietin R/Fc Chimera, CF (R&D Systems Cat#963-ER) (human, UniProt P19235 25-250); test: as above
T3 construct: Purchased Fc chimera; also called EPO R/Fc; Epo R; not shown: Fc portion of the purchased chimera
T3 sequence: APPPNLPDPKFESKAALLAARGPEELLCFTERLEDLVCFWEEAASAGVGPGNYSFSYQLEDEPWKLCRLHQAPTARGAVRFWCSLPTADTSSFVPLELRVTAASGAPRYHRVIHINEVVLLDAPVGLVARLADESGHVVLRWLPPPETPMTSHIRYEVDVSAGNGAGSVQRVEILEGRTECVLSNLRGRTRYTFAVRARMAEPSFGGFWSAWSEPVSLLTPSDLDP

[4] = biological target: T4, Recombinant Human DLL4 (R&D Systems Cat#1506-D4/CF) (human, UniProt Q9NR61 27-524); test: as above
T4 construct: Purchased recombinant protein; also called delta-like protein 4

[5] = biological target: T5, rHuman ErbB2/Fc Chimera, CF (R&D Systems Cat#1129-ER) (human, UniProt P04626 23-652); test: as above
T5 construct: Purchased Fc chimera; also called HER2/neu; not shown: Fc portion of the purchased chimera

[6] = biological target: T6, rHuman EGF R/Fc Chimera, CF (R&D Systems Cat#344-ER) (human, UniProt P00533 25-645); test: as above
T6 construct: Purchased Fc chimera; not shown: Fc portion of the purchased chimera

[7] = biological target: T7, rHuman HGF R/c-MET/Fc Chimera, CF (R&D Systems Cat#358-MT/CF) (human, UniProt P08581 25-932); test: as above
T7 construct: Purchased Fc chimera; also called HGF R/Fc; not shown: Fc portion of the purchased chimera

[8] = biological target: T8, rHuman Notch-1/Fc Chimera, CF (R&D Systems Cat#3647-TK) (human, UniProt P46531 19-526); test: as above
T8 construct: Purchased Fc chimera; not shown: Fc portion of the purchased chimera

[9] = biological target: T9, rHuman CD44/Fc Chimera, CF (R&D Systems Cat#3660-CD) (human, UniProt P16070 21-220); test: as above
T9 construct: Purchased Fc chimera; not shown: Fc portion of the purchased chimera

[10] = biological target: T3, rHuman Erythropoietin R/Fc Chimera, CF …; test: MSD ECL multi-spot plate, antigen immobilized; Fab 40 nM; blank spot 518
[11] = biological target: T10, rHuman Notch-1/Fc Chimera, CF (R&D Systems Cat#3647-TK) (human, UniProt P46531 19-526); test: MSD ECL titration, Fab 595.8 nM, blank 285
T10 construct: Bought Fc chimera; Fc part of the bought chimera not given

[12] = biological target: T11, rHuman CD44/Fc Chimera, CF (R&D Systems Cat#3660-CD) (human, UniProt P16070 21-220); test: MSD ECL titration, Fab 595.8 nM, blank 285
T11 construct: Bought Fc chimera; Fc part of the bought chimera not given

[13] = biological target: T12, rHuman IGF-1 sR (insulin-like growth factor-1 soluble receptor), CF (R&D Systems Cat#391-GR) (human, UniProt P08069 31-932); test: MSD ECL titration, Fab 595.8 nM, blank 285
T12 construct: Bought soluble receptor; also called IGF-R1

[14] = biological target: T13, rHuman P-Cadherin/Fc Chimera, CF (R&D Systems Cat#861-PC) (human, UniProt P22223 108-654); test: MSD ECL titration, Fab 595.8 nM, blank 285
T13 construct: Bought Fc chimera; Fc part of the bought chimera not given

[15] = biological target: T14, rHuman EGF R/Fc Chimera, CF (R&D Systems Cat#344-ER) (human, UniProt P00533 25-645); test: MSD ECL titration, Fab 595.8 nM, blank 285
T14 construct: Bought Fc chimera; Fc part of the bought chimera not given

[16] = biological target: T15, rHuman Erythropoietin R/Fc Chimera, CF (R&D Systems Cat#963-ER) (human, UniProt P19235 25-250); test: ECL (MSD Multi-Spot) binding assay, antigen spotted on plate; Fab 60 nM; blank spot 237
T15 construct: Bought Fc chimera; also called EPO R/Fc; Epo R; Fc part of the bought chimera not given
T15 sequence: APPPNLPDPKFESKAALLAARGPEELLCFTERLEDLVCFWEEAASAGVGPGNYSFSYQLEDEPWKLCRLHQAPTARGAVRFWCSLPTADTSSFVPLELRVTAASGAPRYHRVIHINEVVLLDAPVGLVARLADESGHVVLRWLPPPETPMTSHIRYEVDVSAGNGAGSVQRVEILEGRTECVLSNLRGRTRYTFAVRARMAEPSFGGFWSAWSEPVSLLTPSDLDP

[17] = biological target: T16, Recombinant Human DLL4 (R&D Systems Cat#1506-D4/CF) (human, UniProt Q9NR61 27-524); test: as above
T16 construct: Bought recombinant protein; also called delta-like protein 4; rHuman DLL4

[18] = biological target: T17, rHuman Notch-1/Fc Chimera, CF (R&D Systems Cat#3647-TK) (human, UniProt P46531 19-526); test: as above
T17 construct: Bought Fc chimera; Fc part of the bought chimera not given

[19] = biological target: T18, rHuman CD44/Fc Chimera, CF (R&D Systems Cat#3660-CD) (human, UniProt P16070 21-220); test: as above
T18 construct: Bought Fc chimera; Fc part of the bought chimera not given

[20] = biological target: T19, rHuman P-Cadherin/Fc Chimera, CF (R&D Systems Cat#861-PC) (human, UniProt P22223 108-654); test: as above
T19 construct: Bought Fc chimera; also called CDH3; Fc part of the bought chimera not given
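Also: blank spot per well as comparator with Hit at signal to blank ratio of 4 or more.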

B1: Fab VH5-51_IGHD5-18*01>3_IGHJ4*01_G100K & V3-4_IGLJ1*01 (Fab, V domains shown)
VH: EVQLVQSGAEVKKPGESLKISCKGSGYSFTSYWIGWVRQMPGKGLEWMGIIYPGDSDTRYSPSFQGQVTISADKSISTAYLQWSSLKASDTAMYYCARRKYSYGYDYFDYWGQGTLVTVSS
VL: QTVVTQEPSFSVSPGGTVTLTCGLSSGSVSTSYYPSWYQQTPGQAPRTLIYSTNTRSSGVPDRFSGSILGNKAALTITGAQADDESDYYCVLYMGSGISYVFGTGTKVTVL
notes: It was expressed as a Fab: CH1 with tags from Plasmid A and lambda CL from Plasmid E; also called Fab No. 22
ECL signal [1]: 1200 ECL signal
ECL signal [2]: 788 ECL signal
ECL signal [3]: 881 ECL signal
ECL signal [4]: 11400 ECL signal
ECL signal [5]: 1230 ECL signal
ECL signal [6]: 1030 ECL signal
ECL signal [7]: 1260 ECL signal
ECL signal [8]: 831 ECL signal
ECL signal [9]: 853 ECL signal
ECL signal [10]: 979 ECL signal

B2: Fab VH1-46_IGHD6-6*01_IGHJ1*01 & L6_IGKJ1*01 (Fab, V domains shown)
VH: QVQLVQSGAEVKKPGASVKVSCKASGYTFTSYYMHWVRQAPGQGLEWMGIINPSGGSTSYAQKFQGRVTMTRDTSTSTVYMELSSLRSEDTAVYYCAREEYSSSSAEYFQHWGQGTLVTVSS
VL: not shown
notes: Expressed in E. coli as Fab: heavy chain with CH1 plus Flag and His tags from Plasmid A, kappa light chain constant region from Plasmid C; also called Fab No. 1
ECL signal [11]: 306
ECL signal [12]: 372
ECL signal [13]: 335
ECL signal [14]: 617
ECL signal [15]: 403

B3: Fab VH6-1_IGHD3-3*01_IGHJ4*01 & V4-3_IGLJ4*01 (Fab, V domains shown)
VH: QVQLQQSGPGLVKPSQTLSLTCAISGDSVSSNSAAWNWIRQSPSRGLEWLGRTYYRSKWYNDYAVSVKSRITINPDTSKNQFSLQLNSVTPEDTAVYYCAREYYDFWSGYYTDYFDYWGQGTLVTVSS
VL: QPVLTQPTSLSASPGASARLTCTLRSGINLGSYRIFWYQQKPESPPRYLLSYYSDSSKHQGSGVPSRFSGSKDASSNAGILVISGLQSEDEADYYCMIWHSSASFVFGGGTQLIIL
notes: Tested as a Fab made in E. coli; also called IGHV6-1*01
ECL signal [16]: 423
ECL signal [17]: 875
ECL signal [18]: 415
ECL signal [19]: 434
ECL signal [20]: 372
